Laboratory results: publication PMC5955458, “Secreted Giardia intestinalis cysteine proteases disrupt intestinal epithelial cell junctional complexes and degrade chemokines” (Virulence, 2018)

How the values were obtained:
[1] = tested on: Cc1cc(=O)oc2cc(NC(=O)[C@H](CCCNC(=N)N)NC(=O)[C@H](Cc3ccccc3)NC(=O)OCc3ccccc3)ccc12; assay: purified protein; conditions: 4 mM DTT, 10 mM EDTA
[2] = tested on: Cc1cc(=O)oc2cc(NC(=O)[C@H](CCCNC(=N)N)NC(=O)[C@H](CCCNC(=N)N)NC(=O)OCc3ccccc3)ccc12; assay: purified protein; conditions: 4 mM DTT, 10 mM EDTA
[3] = pH 5.5, 37°C, sodium acetate buffer
[4] = pH 6, 37°C, sodium phosphate buffer, pre-activated 120 min at pH 5.5
[5] = pH 5.5, 37°C, sodium acetate buffer, pre-activated 120 min at pH 5.5, pH 5.5
[6] = pH 6, 37°C, sodium phosphate buffer

CP14019 (Giardia lamblia ATCC 50803) gave a Km [1, 3] of 3.17 ± 0.34 µM, a kcat/Km [1, 3] of 179000 to 237000 M⁻¹ s⁻¹ and a Km [2, 3] of 5.11 ± 1.11 µM. The kcat/Km [2, 3] was 5410 to 9840 M⁻¹ s⁻¹.
Work on CP16160 (Giardia lamblia ATCC 50803) yielded a Km [1, 4] of 9.40 ± 1.46 µM, a kcat/Km [1, 4] of 43000 to 67700 M⁻¹ s⁻¹ and a Km [2, 5] of 5.60 ± 1.00 µM. It also gave a kcat/Km [2, 5] of 58600 to 96100 M⁻¹ s⁻¹.
CP16779 (Giardia lamblia ATCC 50803) was tested, and the Km [1, 6] was 0.96 ± 0.24 µM, the kcat/Km [1, 6] was 1.02e+06 to 2.06e+06 M⁻¹ s⁻¹ and the Km [2, 6] was 5.40 ± 0.75 µM. The kcat/Km [2, 6] was 10500 to 14800 M⁻¹ s⁻¹.
